Measured values reported in publication PMC7135739.
Where two headings read alike, the source gives them in different places.

Assays:
Experiment in all cases: microtiter plate binding assay
[1] = target: Bovine cardiac myosin (bovine) (UniProt Q9BE39)
[2] = target: Bovine cardiac myosin (bovine) (UniProt Q9BE39); remark: listed apart in the source
[3] = target: Rabbit skeletal muscle myosin (rabbit) (UniProt Q28641)
Chain of UniProt Q28641 (Q28641 whole entry, chain 1 of 3): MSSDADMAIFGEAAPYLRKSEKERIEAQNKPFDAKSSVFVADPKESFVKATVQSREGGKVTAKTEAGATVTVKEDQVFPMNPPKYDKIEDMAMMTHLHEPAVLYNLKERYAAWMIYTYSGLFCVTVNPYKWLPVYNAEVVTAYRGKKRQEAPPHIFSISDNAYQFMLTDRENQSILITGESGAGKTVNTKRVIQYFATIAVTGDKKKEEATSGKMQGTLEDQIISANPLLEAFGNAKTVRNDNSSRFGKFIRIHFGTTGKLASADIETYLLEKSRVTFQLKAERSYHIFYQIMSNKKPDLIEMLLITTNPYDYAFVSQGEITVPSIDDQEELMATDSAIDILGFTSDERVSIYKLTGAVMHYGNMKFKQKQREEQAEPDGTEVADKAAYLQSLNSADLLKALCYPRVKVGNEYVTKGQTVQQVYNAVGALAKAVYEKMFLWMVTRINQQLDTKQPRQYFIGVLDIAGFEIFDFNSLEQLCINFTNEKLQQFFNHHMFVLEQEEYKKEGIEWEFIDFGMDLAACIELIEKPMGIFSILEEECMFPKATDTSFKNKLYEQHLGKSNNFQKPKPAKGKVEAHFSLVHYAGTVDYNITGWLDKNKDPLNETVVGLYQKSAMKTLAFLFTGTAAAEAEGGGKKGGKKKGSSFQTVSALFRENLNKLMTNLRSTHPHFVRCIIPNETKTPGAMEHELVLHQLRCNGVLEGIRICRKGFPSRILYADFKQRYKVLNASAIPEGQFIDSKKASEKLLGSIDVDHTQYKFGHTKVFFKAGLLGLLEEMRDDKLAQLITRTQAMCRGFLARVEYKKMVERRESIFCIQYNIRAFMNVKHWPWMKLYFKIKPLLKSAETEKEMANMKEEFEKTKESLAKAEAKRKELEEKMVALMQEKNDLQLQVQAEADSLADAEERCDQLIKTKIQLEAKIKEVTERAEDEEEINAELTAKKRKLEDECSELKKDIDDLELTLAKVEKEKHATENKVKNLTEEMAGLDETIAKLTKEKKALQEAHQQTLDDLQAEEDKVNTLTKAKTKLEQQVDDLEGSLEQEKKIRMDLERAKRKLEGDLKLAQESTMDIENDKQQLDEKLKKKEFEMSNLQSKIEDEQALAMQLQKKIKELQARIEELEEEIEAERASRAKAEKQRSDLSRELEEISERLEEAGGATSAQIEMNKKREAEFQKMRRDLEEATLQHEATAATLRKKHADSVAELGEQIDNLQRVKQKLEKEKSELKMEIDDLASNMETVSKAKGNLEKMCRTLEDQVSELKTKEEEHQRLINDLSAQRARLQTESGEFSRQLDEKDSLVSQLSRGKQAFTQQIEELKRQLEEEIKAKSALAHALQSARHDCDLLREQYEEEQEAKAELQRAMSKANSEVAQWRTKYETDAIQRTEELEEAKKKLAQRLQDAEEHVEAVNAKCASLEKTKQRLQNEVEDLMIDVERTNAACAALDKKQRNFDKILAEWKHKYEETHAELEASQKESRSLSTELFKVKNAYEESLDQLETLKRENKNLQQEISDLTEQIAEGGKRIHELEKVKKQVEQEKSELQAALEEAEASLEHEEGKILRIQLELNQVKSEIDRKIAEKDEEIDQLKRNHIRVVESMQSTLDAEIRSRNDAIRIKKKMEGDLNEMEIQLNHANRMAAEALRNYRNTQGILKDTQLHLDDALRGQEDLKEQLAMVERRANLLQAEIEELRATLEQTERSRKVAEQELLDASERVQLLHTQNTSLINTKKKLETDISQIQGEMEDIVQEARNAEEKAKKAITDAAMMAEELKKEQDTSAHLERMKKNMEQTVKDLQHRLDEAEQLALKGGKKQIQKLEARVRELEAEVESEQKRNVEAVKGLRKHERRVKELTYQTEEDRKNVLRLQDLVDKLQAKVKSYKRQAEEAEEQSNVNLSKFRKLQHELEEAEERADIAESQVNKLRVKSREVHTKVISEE
Chain of UniProt Q28641 (P02602 2-192, chain 2 of 3, further chain): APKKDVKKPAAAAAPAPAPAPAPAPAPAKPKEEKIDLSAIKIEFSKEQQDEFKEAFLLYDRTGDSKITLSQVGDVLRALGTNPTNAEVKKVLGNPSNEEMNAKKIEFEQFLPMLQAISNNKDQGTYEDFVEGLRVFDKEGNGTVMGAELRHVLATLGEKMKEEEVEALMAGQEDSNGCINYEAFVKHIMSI
Chain of UniProt Q28641 (P02608 2-170, chain 3 of 3, further chain): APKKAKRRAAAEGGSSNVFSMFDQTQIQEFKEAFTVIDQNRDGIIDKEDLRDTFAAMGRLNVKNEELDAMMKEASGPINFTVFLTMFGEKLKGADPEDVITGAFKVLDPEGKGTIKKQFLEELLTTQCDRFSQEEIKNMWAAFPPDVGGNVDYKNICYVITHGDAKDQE

Substance Human factor Xa (enzyme) has a Kd [1] of 21 nM, a Kd [2] of 108 nM and a Kd [3] of 80.4 nM.
